Consider one substance from publication PMC5798227.

The target in this experiment is DS-SOSIP.664 trimer (BG505) (HIV-1 BG505 (clade A)). Description: SPR. A general note: Surface plasmon resonance follows binding to a sensor surface in real time, without labels.

As a reminder, the Kd is the equilibrium constant for the complex coming apart. Low values mean higher affinity, high ones lower affinity. With 2-domain soluble CD4 (receptor), the dissociation constant (Kd) was 8 nM.
